Assay results published in US20050176630A1.
Each block holds one molecule with its values, some of them ahead of it. No end group written: not given here.

How the values were obtained:
[1] = target: µ opioid receptor on POMC neurons in mouse hypothalamic slices (mouse) (UniProt P42866); assay: cell-based or functional assay
[2] = target: MC3-R in mouse arcuate nucleus slices (mouse) (UniProt P33033); assay: cell-based or functional assay
[3] = target: T1, NPY Y2 receptor (expressed on a cell line); assay: receptor-binding study on a cell line expressing the NPY Y2 receptor; labelled ligand not named
T1 sequence (P49146 whole entry, species assumed, looked up): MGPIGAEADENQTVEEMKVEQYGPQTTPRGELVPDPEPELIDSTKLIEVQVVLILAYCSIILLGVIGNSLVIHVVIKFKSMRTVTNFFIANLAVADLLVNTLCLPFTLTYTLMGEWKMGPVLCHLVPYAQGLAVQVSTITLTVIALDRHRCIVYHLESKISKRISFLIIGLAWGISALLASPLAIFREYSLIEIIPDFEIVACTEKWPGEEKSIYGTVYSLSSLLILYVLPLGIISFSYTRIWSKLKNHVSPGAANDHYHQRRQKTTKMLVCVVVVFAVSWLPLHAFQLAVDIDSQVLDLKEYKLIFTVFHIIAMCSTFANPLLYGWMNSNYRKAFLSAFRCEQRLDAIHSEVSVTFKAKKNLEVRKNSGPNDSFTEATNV

Sequence of µ opioid receptor on POMC neurons in mouse hypothalamic slices (mouse) (P42866 whole entry): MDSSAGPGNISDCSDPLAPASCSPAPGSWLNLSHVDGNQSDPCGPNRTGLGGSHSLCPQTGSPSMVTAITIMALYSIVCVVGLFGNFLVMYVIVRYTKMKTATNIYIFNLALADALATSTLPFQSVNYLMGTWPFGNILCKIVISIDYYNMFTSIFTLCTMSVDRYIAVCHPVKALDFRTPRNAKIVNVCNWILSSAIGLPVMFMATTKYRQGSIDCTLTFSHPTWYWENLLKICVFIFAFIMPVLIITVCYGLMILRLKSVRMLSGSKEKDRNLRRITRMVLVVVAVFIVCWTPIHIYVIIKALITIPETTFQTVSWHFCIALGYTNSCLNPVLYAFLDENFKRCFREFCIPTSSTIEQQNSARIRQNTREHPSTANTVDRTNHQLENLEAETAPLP
Sequence of MC3-R in mouse arcuate nucleus slices (mouse) (P33033 whole entry): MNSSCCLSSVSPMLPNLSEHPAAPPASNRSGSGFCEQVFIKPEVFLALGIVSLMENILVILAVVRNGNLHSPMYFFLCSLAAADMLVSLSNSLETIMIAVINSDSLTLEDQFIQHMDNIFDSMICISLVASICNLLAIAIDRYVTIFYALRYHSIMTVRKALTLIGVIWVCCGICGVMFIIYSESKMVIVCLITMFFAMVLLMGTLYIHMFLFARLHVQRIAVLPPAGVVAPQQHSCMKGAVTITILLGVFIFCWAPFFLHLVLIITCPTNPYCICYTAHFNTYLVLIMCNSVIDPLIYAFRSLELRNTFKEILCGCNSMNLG

hyperpolarization of the membrane potential of POMC cells (Met-Enk 30 µM) [1]: 10 to 20 mV
Molecule: met-enkephalin (from UniProt P01210 100-104) (peptide)

frequency of GABAergic IPSCs recorded from POMC neurons (D-Trp^8-γMSH 7 nM) [2]: 280%
Molecule: D-Trp^8-γMSH (peptide)

IC50 [3]: 1.3 nM
Molecule: Ac-LRHYLNLLTRQRY (ends and bridges not checked) [N-acetyl (Leu^28, Leu^31) NPY (24-36)]
